Consider 1 molecule from US20210033615A1 (DEUTSCHES KREBSFORSCHUNGSZENTRUM STIFTUNG DOES OFFENTLICHEN …, published 2021).

Test [1] addresses T1, 6-phosphofructo-2-kinase/fructose-2,6-biphosphatase 4 (PFKFB4) (human, UniProt Q16877 1-469).
T1 construct: It was expressed inside cells (GSCs, HEK293) or in yeast two-hybrid; any tags in the coIP and Y2H are not described; also called untagged PFKFB4
The test can be described thus: NanoBiT competition in HEK293 cells.

Test [2] concerns the target T2, PFKFB4 tagged at the C-terminal with the Large BiT (human, UniProt Q16877 1-469).
T2 construct: Expressed in HEK293 cells for the NanoBiT assay; also called C-ter[LgBiT]PFKFB4; tagged PFKFB4; not shown: Large BiT (LgBiT) tag and any linker from the pLVX1.1-C[TK/LgBiT]; NanoBiT vector
The experiment in a line: NanoBiT luminescence complementation in HEK293 cells; counted positive if the signal is at least 10-fold that of the negative control. An excerpt:
The NanoBiT® assay from Promega is widely used to investigate protein-protein interactions. The NanoBiT Assay is described in detail in Dixon et al., (2016) “NanoLuc Complementation Reporter Optimized for Accurate Measurement of Protein Interactions in Cells” (ACS Chem. Biol., 11, 400-408; which is incorporated herein by reference in its entirety). The inventors adapted this method to develop a cellular screening assay in order to investigate the interaction of PFKFB4 with FBXO28. In that respect, both genes were cloned into pLVX vectors containing the four NanoBiT® versions (pLVX1.1-N[TK/LgBiT], pLVX2.1-N[TK/SmBiT], pLVX1.1-C[TK/LgBiT] and pLVX2.1-C[TK/SmBiT]), allowing the small and large BiT tags to be at the N- or C-terminal of both proteins of interest. As negative control, a vector containing a HaloTag protein cloned to the small BiT was used in combination with the large BiT cloned to either FBXO28 or PFKFB4.
All vectors were transfected in HEK293 cells and the combinations were tested as depicted in FIG. 7A. The luminescent signal was detected with the Nano-Glo® Luciferase Assay System from Promega. The interaction was considered positive if the signal was at least 10-fold of the respective negative control. […]

T1 sequence (Q16877 whole entry): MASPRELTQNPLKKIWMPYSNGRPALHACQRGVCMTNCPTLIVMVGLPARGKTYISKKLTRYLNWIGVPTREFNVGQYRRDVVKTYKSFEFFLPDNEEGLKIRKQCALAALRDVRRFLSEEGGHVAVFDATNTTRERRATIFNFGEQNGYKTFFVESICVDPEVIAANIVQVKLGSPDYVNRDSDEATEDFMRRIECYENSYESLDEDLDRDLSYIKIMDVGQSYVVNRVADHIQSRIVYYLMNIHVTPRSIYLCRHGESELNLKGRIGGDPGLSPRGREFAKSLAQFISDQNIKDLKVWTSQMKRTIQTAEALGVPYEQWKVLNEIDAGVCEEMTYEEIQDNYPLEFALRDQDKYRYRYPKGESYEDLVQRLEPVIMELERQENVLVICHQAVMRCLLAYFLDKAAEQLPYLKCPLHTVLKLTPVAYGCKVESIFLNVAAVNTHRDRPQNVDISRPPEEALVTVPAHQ
T2 sequence (Q16877 whole entry): as above

B1: FBXO28 tagged at the N-terminal with the small BiT (other)
chain: MAAAAEERMAEEGGGGQGDGGSSLASGSTQRQPPPPAPQHPQPGSQALPAPALAPDQLPQNNTLVALPIVAIENILSFMSYDEISQLRLVCKRMDLVCQRMLNQGFLKVERYHNLCQKQVKAQLPRRESERRNHSLARHADILAAVETRLSLLNMTFMKYVDSNLCCFIPGKVIDEIYRVLRYVNSTRAPQRAHEVLQELRDISSMAMEYFDEKIVPILKRKLPGSDVSGRLMGSPPVPGPSAALTTMQLFSKQNPSRQEVTKLQQQVKTNGAGVTVLRREISELRTKVQEQQKQLQDQDQKLLEQTQIIGEQNARLAELERKLREVMESAVGNSSGSGQNEESPRKRKKATEAIDSLRKSKRLRNRK
notes: Expressed in HEK293 cells for the NanoBiT assay; also called N-ter[SmBiT]FBXO28; tagged FBXO28; not shown: Small BiT (SmBiT) tag and any linker from the pLVX2.1-N[TK/SmBiT]; NanoBiT vector
For the molecule B1, the binding result in test [1] and in test [2] was “binds” throughout.
